Results from article PMC9772109.

Molecular target: H10 HA trimer of A/Jiangxi-Donghu/346/2013 (H10 JD13) (influenza A virus A/Jiangxi-Donghu/346/2013 (H10N8))
Experiment: negative stain EM, 3D reconstruction

## H10 HA trimer of A/Jiangxi-Donghu/346/2013 (H10 JD13) (natural protein)
  stoichiometry N: 3
